From paper PMC4731314 (Cell reports, 2016) come the findings set out here.

The data set deals with the molecule itself. As to the kind of experiment: AUC.

B1: full-length Imp2 purified from S. pombe (natural protein, UniProt Q10199 1-670, looked up)
chain: MSQQLSFNASSAKPDKSFSNYFWGANDEGYHALLSRFSDVKHINEELRSFYHERANIEEDYAKRMAKLSRTTFSSLETGCLKESVQVMKAEVDNMAKSHLQISQLLQDDVENAFTRYAASLKDKKKMIVSGIEKVHKDKLSKHQALVKAQDKYHYLCKKVNYYVSQQNMLFGKELEKNNAKLNKTQNAITASSSDYQSAVAAVRDSYARWTNEWRSTCDKLQDIEEERRHFLKSVMWTFTLLISRSCFNDDQACERIRKNLEQCSVSQDVLEFIDAKSTGTGIPQPPKFYDYYKGEVPDDSVELVQANFQRAQTKIENDNMPLNRPYVLSATARNESSFENTLPNTPSAIQSLTTVSSNSSQNGRSSPKKSFLSKFKLTSRPSTPNVGNTAPDALSSPRNDSPLTSAADEQMKHLSLQEEPKQNPTPAAPGAFPNSNTLPPRYNELGSLPSPNSVSFTEDSRPNVNTPSRRQQIQEEFGSVLQMENRAVSPVYDSRKNGSRSSFTLRKSRSPKRPSSSLSQNASRLPRSLTPGNLEPNYDFGVRVDPASGTAPTDDEPYTDRDSSFVDDTINTKATGNTSNRLSLPAYPTDGGDTSIDNPTSTDGQRILGYVSALYDYDAAIPEEISFRKGDTIAVLKLYEDGWWEGFVVGEDDHNRGQFPSNFVREIEV
On to B1, for which the binding result is recorded as “binds”.

B2: Imp2(Dimer-Dimer-4A) purified from S. pombe (natural protein, UniProt Q10199 1-670, looked up)
chain: MSQQLSFNASSAKPDKSFSNYFWGANDEGYHALLSRFSDVKHINEELRSFYHERANIEEDYAKRMAKLSRTTFSSLETGCLKESVQVMKAEVDNMAASHLAISQLLQDAVENAFTAYAASLKDKKKMIVSGIEKVHKDKLSKHQALVKAQDKYHYLCKKVNYYVSQQNMLFGKELEKNNAKLNKTQNAITASSSDYQSAVAAVRDSYARWTNEWRSTCDKLQDIEEERRHFLKSVMWTFTLLISRSCFNDDQACERIRKNLEQCSVSQDVLEFIDAKSTGTGIPQPPKFYDYYKGEVPDDSVELVQANFQRAQTKIENDNMPLNRPYVLSATARNESSFENTLPNTPSAIQSLTTVSSNSSQNGRSSPKKSFLSKFKLTSRPSTPNVGNTAPDALSSPRNDSPLTSAADEQMKHLSLQEEPKQNPTPAAPGAFPNSNTLPPRYNELGSLPSPNSVSFTEDSRPNVNTPSRRQQIQEEFGSVLQMENRAVSPVYDSRKNGSRSSFTLRKSRSPKRPSSSLSQNASRLPRSLTPGNLEPNYDFGVRVDPASGTAPTDDEPYTDRDSSFVDDTINTKATGNTSNRLSLPAYPTDGGDTSIDNPTSTDGQRILGYVSALYDYDAAIPEEISFRKGDTIAVLKLYEDGWWEGFVVGEDDHNRGQFPSNFVREIEV
In the case of B2, the stoichiometry N (in general, the number of molecules, sites or subunits per partner or assembly) amounted to 2.
